Laboratory results reported in patent US20240110201A1 (SPARK THERAPEUTICS, published 2024).

Target: T1, C1-esterase (reagent of the Technochrom C1-INH kit, Diapharma 5345003) (human, UniProt P09871 16-688, limits assumed)
T1 sequence (looked up): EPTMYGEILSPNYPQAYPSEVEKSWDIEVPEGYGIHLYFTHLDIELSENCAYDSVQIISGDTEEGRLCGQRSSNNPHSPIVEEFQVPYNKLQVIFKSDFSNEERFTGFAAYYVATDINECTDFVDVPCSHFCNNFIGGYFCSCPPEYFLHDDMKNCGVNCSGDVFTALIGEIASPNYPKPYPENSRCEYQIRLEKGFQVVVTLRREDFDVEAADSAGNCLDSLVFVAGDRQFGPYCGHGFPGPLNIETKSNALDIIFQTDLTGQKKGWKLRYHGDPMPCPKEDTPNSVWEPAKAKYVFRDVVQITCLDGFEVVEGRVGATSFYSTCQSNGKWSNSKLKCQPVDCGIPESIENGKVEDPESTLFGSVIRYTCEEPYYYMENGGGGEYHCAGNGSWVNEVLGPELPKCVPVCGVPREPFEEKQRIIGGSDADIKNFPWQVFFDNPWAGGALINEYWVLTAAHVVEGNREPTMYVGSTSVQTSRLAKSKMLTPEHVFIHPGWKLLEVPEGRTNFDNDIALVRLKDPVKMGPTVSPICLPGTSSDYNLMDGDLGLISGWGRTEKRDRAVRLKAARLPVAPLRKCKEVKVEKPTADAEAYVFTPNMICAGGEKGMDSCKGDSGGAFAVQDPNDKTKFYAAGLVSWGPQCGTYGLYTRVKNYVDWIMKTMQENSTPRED
Assay: cell-based or functional assay

B1: human C1 inhibitor (transgene product secreted into plasma after administration of AAV-encapsidated SERPING1 expression cassettes) (other)
chain: NPNATSSSSQDPESLQDRGEGKVATTVISKMLFVEPILEVSSLPTTNSTTNSATKITANTTDEPTTQPTTEPTTQPTIQPTQPTTQLPTDSPTQPTTGSFCPGPVTLCSDLESHSTEAVLGDALVDFSLKLYHAFSAMKKVETNMAFSPFSIASLLTQVLLGAGENTKTNLESILSYPKDFTCVHQALKGFTTKGVTSVSQIFHSPDLAIRDTFVNASRTLYSSSPRVLSNNSDANLELINTWVAKNTNNKISRLLDSLPSDTRLVLLNAIYLSAKWKTTFDPKKTRMEPFHFKNSVIKVPMMNSKKYPVAHFIDQTLKAKVGQLQLSHNLSLVILVPQNLKHRLEDMEQALSPSVFKAIMEKLEMSKFQPTLLTLPRIKVTTSQDMLSIMEKLEFFDFSYDLNLCGLTEDPDLQVSAMQHQTVLELTETGVEAAAASAISVARTLLVFEVQQPFLFVLWDQQHKFPVFMGRVYDPRA
Q: Which “C1-INH activity, chromogenic assay of residual C1-esterase activity, reported as percentage of activity relative to a coagulation reference standard” value does the source give for B1 here?
A: Its value is 766 % activity.
